Reference: patent publication US11407811B2, “Fusion protein, preparation method therefor and use thereof” (JIANGSU RONGTAI BIOTECH CO., LTD., priority 2017, dated 2022)
Marks after values point to notes of the source that are not given here.

How the values were obtained:
[1] = tested on: human umbilical vein endothelial cells (HUVEC); experiment: Three-dimensional transwell assay, migration of HUVEC; type: cell-based
Procedure: Human umbilical vein endothelial cells (HUVECs) were cultured with endothelial cell culture fluid containing 5% fetal bovine serum and 1×ECGS in a 5% CO2 incubator at 37° C., to a confluence of 90% or more, and then inhibitory effects of fusion protein I, protein II, protein III, protein IV, and protein V on migration of endothelial cells were detected by transwell assay, in which only endothelial cells HUVEC of passage 2 to 8 were used, and the specific operation was as follows.
(1) 10 mg/mL Matrigel was diluted with a DMEM medium at a ratio of 1:4, coated on a transwell chamber membrane, and air-dried at room temperature.
(2) HUVEC cells cultured to logarithmic phase were digested with 0.2% EDTA, collected, washed twice with PBS, followed by resuspended in an endothelial cell culture liquid containing 0.1% BSA, counted under a microscope, and the cell concentration was adjusted to 1×10^5 cells/mL;
(3) Test solutions for each group were formulated and diluted to 100 μL with a cell culture liquid containing 0.1% BSA;
Groups were divided as follows:
Blank control group: a cell culture liquid containing no drug;
Endostar group: 5 mg/mL Endostar solution diluted to a predetermined concentration with a cell culture liquid containing no drug; […]
(4) The cells were inoculated into a transwell chamber at 100 μL per well, and test solutions for each group were added to the chamber. To a 24-well plate, 0.6 mL of endothelial cell culture liquid containing 5% fetal bovine serum and 1×ECGS was added to stimulate cell migration, and incubated at 5% CO2 for 24 h at 37° C.
(5) The culture liquid in the well was discarded. The cells were fixed with 90% alcohol at room temperature for 30 min, stained with 0.1% crystal violet for 10 min at room temperature, and rinsed with water. Un-migrated cells in the upper layer were gently wiped off by a cotton swab. The observation was carried out under microscope and four fields of view were selected for taking photos and counting. The migration inhibition (MI) was calculated according to the formula: […]
where Ntest is the migration cell number in the test group, and Ncontrol is the migration cell number in the blank control group.
The test was repeated 3 times independently. The results obtained from the test were calculated as mean±SD, and statistical t-test was performed. P<0.05 was considered as a significant difference, and P<0.01 was considered as an extremely significant difference.

[2] = tested on: colon cancer cells HCT-116; experiment: MTT assay, proliferation of colon cancer cell HCT-116; type: cell-based
Procedure: The MTT assay was used to detect the inhibitory effect of the integrin blocker fusion protein obtained in Example 1 on the proliferation of various tumor cells, including melanoma cell B16F10, gastric cancer cell MGC-803, lung cancer cell A549, liver cancer cell Hep-G2, breast cancer cell MDA-MB-231, colon cancer cell HCT-116, human glioma U87, and cervical cancer cell Hela.
The tumor cells were cultured in a 5% CO2 incubator at 37° C. to a density of 90% or more, and collected by trypsinization. The cells were resuspended in the culture liquid and counted under a microscope. The cell concentration was adjusted to 3.0×10^4 cells/mL. The cell suspension was inoculated into a 96-well plate at 100 μL per well and cultured overnight in a 5% CO2 incubator at 37° C. […] After the cells were fully adhered, each dilution was added to a 96-well plate at 100 μL per well, respectively. […] 20 μL of 5 mg/mL MTT was added to each well of a 96-well plate, and incubation was continued for 4 hours. The medium was aspirated and 100 μL of DMSO per well were added to dissolve. The absorbance was measured at 570 nm with a microplate reader with a reference wavelength of 630 nm, and the proliferation inhibition (PI) was calculated. The formula is as follows: […]
where Ntest is the OD value of the test group and Ncontrol is the OD value of the blank control group.
The test was repeated 5 times independently. The results obtained from the test were calculated as mean±SD, and statistical t-test was performed. P<0.05 was considered as a significant difference, and P<0.01 was considered as an extremely significant difference.

[3] = tested on: tampon granuloma in rat; type: in vivo
Procedure: 40 parts of degreasing cotton, 30 mg for each part, were accurately weighed with an analytical balance and kneaded into balls having substantially the same shape and size, which were autoclaved at […] for 30 min and dried at 50° C. for further use.
40 male SD rats were randomly divided into 4 groups with 10 rats for each group. […] Rats were anesthetized with sodium pentobarbital (40 mg/kg) via intraperitoneal injection before administration. The abdominal coat was cut off, and the skin of middle of the lower abdomen was cut under sterile conditions. The incision was about 1 cm long and the subcutaneous tissue was expanded with a vascular clamp. A sterile dry tampon was subcutaneously implanted into one side of the groin, the incision was sutured, and an appropriate amount of amoxicillin was spread at the incision to prevent infection. After the surgery was finished, the groups were administered once by injection from the day of surgery (EDSM needed to be administered twice a day). The rats were sacrificed by cervical dislocation at the 24th hour after administration, the inguinal skin was cut, the tampon was taken out together with the surrounding granulation tissue and the surrounding tissue was removed. After drying for additional 48 h in an oven at 60° C., the weight was accurately weighed. The granuloma weight was calculated: granuloma weight (mg/100 g body weight)=net weight of granulation (mg)/rat body weight (100 g).

B1: Protein II: IgG2-Fc linked to antiangiogenesis polypeptide EDSM-Y via a flexible linker; SEQ ID NO: 17 (protein)
chain: ERKCCVECPPCPAPPVAGPSVFLFPPKPKDTLMISRTPEVTCVVVDVSHEDPEVQFNWYVDGVEVHNAKTKPREEQFNSTFRVVSVLTVVHQDWLNGKEYKCKVSNKGLPAPIEKTISKTKGQPREPQVYTLPPSREEMTKNQVSLTCLVKGFYPSDISVEWESNGQPENNYKTTPPMLDSDGSFFLYSKLTVDKSRWQQGNVFSCSVMHEALHNHYTQKSLSLSPGKGGGGSGGGGSGGGGSFQPVLHLVALNSPLSGGMRGIRGADFQCFQQARAVGLAGTFRAGGGGRGD
B1 was tested, and the “MI (%)” value ([1]; dose 0.25 μg/mL) was 16.12%, the Migration cell number ([1]; dose 0.25 μg/mL) was 2108.0 ± 75.27 and the “MI (%)” value ([1]; dose 0.5 μg/mL) was 52.11%. The Migration cell number ([1]; dose 0.5 μg/mL) was 1203.5 ± 220.14**^, the “MI (%)” value ([1]; dose 1 μg/mL) was 73.06% and the Migration cell number ([1]; dose 1 μg/mL) was 677.0 ± 24.72**^. The “MI (%)” value ([1]; dose 2 μg/mL) was 77.34%, the Migration cell number ([1]; dose 2 μg/mL) was 569.5 ± 270.29 and the “MI (%)” value ([1]; dose 4 μg/mL) was 65.86%. For the same molecule, the Migration cell number ([1]; dose 4 μg/mL) was 858.0 ± 145.87, the “MI (%)” value ([1]; dose 8 μg/mL) was 29.88% and the Migration cell number ([1]; dose 8 μg/mL) was 1762.0 ± 183.97. The “A570 nm/A630 nm” value ([2]; dose 1 μg/mL) was 0.8310 ± 0.0394, the “PI (%)” value ([2]; dose 1 μg/mL) was 5.59% and the “A570 nm/A630 nm” value ([2]; dose 2 μg/mL) was 0.7925 ± 0.0415. The “PI (%)” value ([2]; dose 2 μg/mL) was 9.96%, the “A570 nm/A630 nm” value ([2]; dose 4 μg/mL) was 0.7555 ± 0.0283 and the “PI (%)” value ([2]; dose 4 μg/mL) was 14.17%. For the same molecule, the “A570 nm/A630 nm” value ([2]; dose 8 μg/mL) was 0.7023 ± 0.0347, the “PI (%)” value ([2]; dose 8 μg/mL) was 20.21% and the “A570 nm/A630 nm” value ([2]; dose 16 μg/mL) was 0.6556 ± 0.0292. The “PI (%)” value ([2]; dose 16 μg/mL) was 25.52%, the “A570 nm/A630 nm” value ([2]; dose 32 μg/mL) was 0.6113 ± 0.0279 and the “PI (%)” value ([2]; dose 32 μg/mL) was 30.55%. The “A570 nm/A630 nm” value ([2]; dose 64 μg/mL) was 0.5498 ± 0.0374, the “PI (%)” value ([2]; dose 64 μg/mL) was 37.54% and the “A570 nm/A630 nm” value ([2]; dose 128 μg/mL) was 0.4898 ± 0.0289. The “PI (%)” value ([2]; dose 128 μg/mL) was 44.35%, the “A570 nm/A630 nm” value ([2]; dose 256 μg/mL) was 0.4497 ± 0.0316 and the “PI (%)” value ([2]; dose 256 μg/mL) was 48.91%. The “inhibition of tampon granuloma in rat” value ([3]; effective dose of 64 mg/kg, compared with the blank model group) was “could significantly inhibit tampon granuloma in rat”, the “GranuLoma (mg)/Weight (100 g)” value ([3]; rat, 64 mg/kg, injection) was 0.23 ± 0.05 mg/100 g and the “PI (%)” value ([3]; rat, 64 mg/kg, injection) was 55.77%. For the same molecule, the “Weight gain” value ([3]; rat, in vivo, 64 mg/kg) was 32.16 ± 10.13 g.
